From US20250179192A1

Biological target: KDR1-3 domains (UniProt P35968)
Assay: Octet BLI, KDR1-3 domains on biosensor, scFv in solution

Sequence of KDR1-3 domains (P35968 20-327 limits assumed): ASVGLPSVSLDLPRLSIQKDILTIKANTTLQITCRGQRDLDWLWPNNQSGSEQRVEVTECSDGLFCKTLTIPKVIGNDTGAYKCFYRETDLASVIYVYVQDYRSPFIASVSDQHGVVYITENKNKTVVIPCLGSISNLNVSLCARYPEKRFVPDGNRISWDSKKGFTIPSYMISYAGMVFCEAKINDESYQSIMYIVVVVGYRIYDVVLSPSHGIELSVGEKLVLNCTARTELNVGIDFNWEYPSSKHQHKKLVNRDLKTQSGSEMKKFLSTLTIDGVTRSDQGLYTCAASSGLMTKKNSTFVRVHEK

koff: 0.000266 s⁻¹
B1: 6A6 (scFv form, off-rate screening) (scFv, from another filing, V domains shown)
VH: QMQLVQSGAEVKKPGASVKLSCKASGYTFSSYWMHWVRQAPGQRLEWMGEINPGNGHTNYNEKFKSRVTITVDKSASTAYMELSSLRSEDTAVYYCAKIWGPSLTSPFDYWGQGTLVTVSS
VL: SNFMLTQPPSVSVSPGKTARITCRGDNLGDVNVHWYQQRPGQAPVLVMYYDADRPSGIPERFSGSNSGNTATLTISGVEAGDEADYYCQVWDRTSEYVFGTGTKVTVLG
